# According to the RNAGym collection of RNA variant scans (doi:10.1093/molbev/msab373):
# B1: Azoarcus group I ribozyme (parent)
# chain: GUGCCUUGCGCCGGGAAACCACGCAAGGGAUGGUGUCAAAUUCGGCGAAACCUAAGCGCCCGCCCGGGCGUAUGGCAACGCCGAGCCAAGCUUCGGCGCCUGCGCCGAUGAAGGUGUAGAGACUAGACGGCACCCACCUAAGGCAAACGCUAUGGUGAAGGCAUAGUCCAGGGAGUGGCGAAAGUCACACAAACCGG
# Variants of: B1
# Assay: reverse-splicing fitness (ratio to wild type); higher = more active; in vitro selection; Mg2+ level not given
# Method in brief: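 An in vitro group I ribozyme library with randomized positions was T7-transcribed and gel-purified. In triplicate, 10 pmol RNA in EPPS pH 7.5 was reacted with 50 pmoles of a 30-nt RNA substrate for 1 h at 37 °C across several added MgCl2 levels (1–48 mM), then stopped with EDTA. Products were reverse transcribed from a substrate-complementary primer, PCR-amplified and sequenced (HiSeq 4000). Fitness is a variant's read proportion after selection over that before, normalised to wild type.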
row,Variant,reverse-splicing fitness
1,A120U A145U C150G C169U U176A,0.00679
2,A120U A145U C150G C169U U176C,0.0175
3,A120U A145G C169A U176A,0.00474
4,A120U A145G C169A U176C,0.00664
5,A120U A145G C169A U176G,0.00148
6,A120U C150A C169U U176C,0.0195
7,A120U C150A C169U U176A,0.0178
8,A120U C150A C169U U176G,0.00432
9,A120U,0.858
10,A120U A145G C169G,0.255
11,A120U A145G C169U,0.286
12,A120U A145G C169A,0.0154
13,A120U A145U C150U U176C,0.552
14,A120U A145U C150U U176A,0.608
15,A120U A145U C150U U176G,0.206
16,A120U C150U,0.774
17,A120U C150G,0.206
18,A120U C150A,0.245
19,A120U A145U C169U,0.261
20,A120U A145U C169A,0.0173
21,A120U A145U C169G,0.256

row,Variant,reverse-splicing fitness
1,A120U A145C C150G C169G,0.0341
2,A120U A145C C150G C169U,0.0478
3,A120U A145C C150G C169A,0.00349
4,A120U U176A,0.66
5,A120U U176C,0.678
6,A120U A145U U176G,0.328
7,A120U A145U U176A,0.681
8,A120U A145U U176C,0.642
9,A120U A145U C150G U176G,0.018
10,A120U A145U C150G U176A,0.122
11,A120U A145U C150G U176C,0.148
12,A120G A145U C169A U176C,0.166
13,A120G A145U C169A U176G,0.00923
14,A120G A145U C169A U176A,0.113
15,A120G C169A,0.444
16,A120G C169G,0.64
17,A120G C169U,0.418
18,A120U A145U C150A C169G U176C,0.0122
19,A120U A145U C150A C169G U176G,0.00216
20,A120U A145U C150A C169G U176A,0.00797
21,A120U C150A C169G,0.0291

row,Variant,reverse-splicing fitness
1,A120U C150A C169U,0.038
2,A120U C150A C169A,0.00484
3,A120U C169A U176A,0.00399
4,A120U C169A U176G,0.00204
5,A120U C169A U176C,0.00594
6,A120G U176C,0.222
7,A120G U176A,0.213
8,A120G U176G,0.0139
9,A120U A145U,0.89
10,A120U A145G,0.837
11,A120U A145C,0.787
12,A120U A145C C150G,0.293
13,A120U A145C C150U,0.459
14,A120U A145C C150A,0.116
15,A120U A145U C169G U176G,0.00322
16,A120U A145U C169G U176A,0.0356
17,A120U A145U C169G U176C,0.0807
18,A120G C150G C169A U176A,0.0128
19,A120G C150G C169A U176C,0.0257
20,A120G C150G C169A U176G,0.0055
21,A120U A145U C150U C169A U176A,0.00335

row,Variant,reverse-splicing fitness
1,A120U A145U C150U C169A U176C,0.00496
2,A120U A145U C150U C169A U176G,0.00234
3,A120G C150G U176G,0.00499
4,A120G C150G U176C,0.0392
5,A120G C150G U176A,0.0287
6,A120U C150A C169A U176A,0.00376
7,A120U C150A C169A U176G,0.00205
8,A120U C150A C169A U176C,0.00333
9,A120U A145C C150A C169A U176A,0.00216
10,A120U A145C C150A C169A U176C,0.00175
11,A120U A145C C150A C169A U176G,0.00203
12,A120U C150G C169A,0.00834
13,A120U C150G C169U,0.0339
14,A120U C150G C169G,0.0252
15,A120U A145C C150U C169G U176A,0.0156
16,A120U A145C C150U C169G U176G,0.00233
17,A120U A145C C150U C169G U176C,0.0135
18,A120G C150A U176G,0.0094
19,A120G C150A U176A,0.0445
20,A120G C150A U176C,0.058
